{
  "source": "paper PMC7316485",
  "about": "“Secretion of Recombinant Interleukin-22 by Engineered Lactobacillus reuteri Reduces Fatty Liver Disease in a Mouse Model of Diet-Induced Obesity” (mSphere, 2020)",
  "molecular_target": "the molecule itself",
  "test": "migration on a gel, Western blot; FLAG-tagged mIL-22 from L. reuteri grown in LDM3 at 37°C to OD600 3.5; total lysate (VPL31125) or protein precipitated from culture supernatant (VPL3778); samples prepared as in ref. 14; gel conditions not told",
  "data": [
    {"protein": "murine interleukin-22 with C-terminal 3x FLAG tag, without signal peptide (IL-22:3X FLAG, pVPL31125) (natural protein, mouse, UniProt Q9JJY9 34-179, looked up, also called mIL-22; source: L. reuteri VPL31125 (accumulates mIL-22 intracellularly), total lysate; not shown: 3x FLAG, C-terminal, kept) LPVNTRCKLEVSNFQQPYIVNRTFMLAKEASLADNNTDVRLIGEKLFRGVSAKDQCYLMKQVLNFTLEDVLLPQSDRFQPYMQEVVPFLTKLSNQLSSCHISGDDQNIQKNVRRLKETVKKLGESGEIKAIGELDLLFMSLRNACV", "values": [
      {"measurement": "stoichiometry N", "result": 4}
    ]},
    {"protein": "murine interleukin-22 with C-terminal 3x FLAG tag, cleaved from the fusion with a Lactobacillus reuteri signal peptide (SP:IL-22:3X FLAG, pVPL3776) (natural protein, mouse, UniProt Q9JJY9 34-179, looked up, the rest kept the signal peptide; also called mIL-22; mature mIL-22; source: L. reuteri VPL3778 (engineered to secrete mIL-22), protein precipitated from culture supernatant; not shown: 3x FLAG, C-terminal, kept) LPVNTRCKLEVSNFQQPYIVNRTFMLAKEASLADNNTDVRLIGEKLFRGVSAKDQCYLMKQVLNFTLEDVLLPQSDRFQPYMQEVVPFLTKLSNQLSSCHISGDDQNIQKNVRRLKETVKKLGESGEIKAIGELDLLFMSLRNACV", "values": [
      {"measurement": "stoichiometry N", "result": 4}
    ]}
  ]
}
